Source: patent US20130224224A1 (Boehringer Ingelheim, published 2013)
Where a chain is given by its changes, count along the chain named. Read-outs that look alike come from different tables or passages of the source. One block for each binder: values may come before it.

Tests used:
[1] = biological target: T1, human CX3CR1 (human, UniProt P49238 1-355); experiment: fractalkine competition FACS
T1 construct: overexpressed on CHO, BA/F3 or HEK293T cells; also called huCX3CR1; hCX3CR1
T1 sequence: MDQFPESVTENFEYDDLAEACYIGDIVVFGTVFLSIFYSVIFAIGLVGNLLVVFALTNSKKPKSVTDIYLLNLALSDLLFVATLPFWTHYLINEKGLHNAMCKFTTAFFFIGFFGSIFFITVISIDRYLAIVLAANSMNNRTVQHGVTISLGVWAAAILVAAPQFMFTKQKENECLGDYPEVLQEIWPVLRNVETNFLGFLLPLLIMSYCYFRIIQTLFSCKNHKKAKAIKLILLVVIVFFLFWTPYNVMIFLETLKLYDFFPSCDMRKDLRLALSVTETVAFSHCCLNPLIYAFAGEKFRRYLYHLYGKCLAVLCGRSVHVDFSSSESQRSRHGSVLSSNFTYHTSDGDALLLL

[2] = biological target: T2, cynomolgus CX3CR1 (cynomolgus, UniProt P49238 1-355 (human entry)); experiment: A647-fractalkine competition FACS, HEK293T cynomolgus CX3CR1
T2 construct: transiently expressed on HEK293T cells; also called cyCX3CR1; cyno CX3CR1
T2 chain: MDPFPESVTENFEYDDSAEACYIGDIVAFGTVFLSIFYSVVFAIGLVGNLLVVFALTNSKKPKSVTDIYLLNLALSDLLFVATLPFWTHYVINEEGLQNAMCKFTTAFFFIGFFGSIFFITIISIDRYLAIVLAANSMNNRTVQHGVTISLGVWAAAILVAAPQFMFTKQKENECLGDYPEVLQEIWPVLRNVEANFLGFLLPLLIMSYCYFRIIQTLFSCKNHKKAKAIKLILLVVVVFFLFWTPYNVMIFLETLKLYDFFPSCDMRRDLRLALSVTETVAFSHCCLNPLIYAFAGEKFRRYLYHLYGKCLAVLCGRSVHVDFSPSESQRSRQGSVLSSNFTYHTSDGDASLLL
Source text: (§1) Periplasmic extracts were screened in a human CX3CR1/human Fractalkine FACS competition assay to assess the blocking capacity of the expressed VHHs. Human CX3CR1 was presented on CHO cells overexpressing CX3CR1. Both a setup using cells harvested from an actively growing culture and a setup using frozen cells was used. As a detection reagent labeled fractalkine was used (R&D Systems, Minneapolis, Minn., USA) labeled with alexa647 (A647-Fractalkine) at a degree of labeling of 1. To setup the assay, first a titration series of the labeled fractalkine was performed on the CHO-huCX3CR1 cells in order to determine the EC50 value for binding. Initially screening was performed at a higher concentration of fractalkine (3 nM) to increase the assay robustness. To increase the sensitivity of the screening to a maximum, the EC30 concentration (1 nM) was chosen for subsequent screening. In brief 50 μl of periplasmic extract was added to 6 nM labeled fractalkine (50 μ;) and 200 000 CHO-huCX3CR1 cells. After one hour incubation at 4 C, cells were washed three times before read out was performed on a FACS Array (Becton Dickinson). First a gate was set on the intact cells as determined from the scatter profile. Next, dead cells were gated out by their fluorescence profile from the PI stain (Sigma, St Louis, US). The fluorescence profile from the alexa647 label was determined for each sample and used for calculation of blocking capacity. As controls, conditions were taken along where there was no VHH present in the peri extract or a known irrelevant VHH and samples were included where excess cold fractalkine was included. For each sample the percentage block was determined using the control samples to determine the assay window.
(§2) For later identified VHHs, a human Fractalkine competition FACS was set up using human or cynomolgus CX3CR1 expressed in HEK293T cells. Both the human and the cynomolgus receptor was transiently transfected in HEK293T cells and transfections were matched by the binding of the labeled ligand, human fractalkine. The competition was evaluated using the EC30 concentration of fractalkine and as such obtained IC50 values are a good estimate of the Ki value, a measure for affinity (Table 22). The experiment was performed as described in Example 4.

[3] = biological target: T1, human CX3CR1; experiment: competition FACS, BA/F3-huCX3CR1; competitor alexa647-labeled 66B02
Source text: A competitive binding experiment was setup in order to determine whether the VHHs bind overlapping epitopes on CX3CR1. For this, the VHH 66B02 labeled with alexa647 was used in a competition FACS on the BA/F3 cells expressing huCX3CR1. Representative VHHs from the three functional families were used as competitors for the binding of the labeled 66B02.

[4] = biological target: T1, human CX3CR1; experiment: cell-based or functional assay
[5] = biological target: T1, human CX3CR1; experiment: A647-fractalkine competition FACS, HEK293-huCX3CR1
Source text: as §1
(§3) The blocking capacity towards the ligand fractalkine of the VHHs was evaluated in a human CX3CR1 competition FACS as outlined in Example 4. Either CHO-huCX3CR1 cells, BA/F3-huCX3CR1 cells or transiently transfected HEK293T cells were used. The amount of labeled ligand used in the different competition setups was also varied. The IC₅₀ values for VHHs blocking the interaction of human fractalkine to human CX3CR1 are depicted in Table 19.

[6] = biological target: T1, human CX3CR1; experiment: cell-based or functional assay; remark: listed apart in the source
[7] = biological target: T2, cynomolgus CX3CR1; experiment: A647-fractalkine competition FACS, cynomolgus against human CX3CR1
Source text: as §1, §2

[8] = biological target: T1, human CX3CR1; experiment: A647-fractalkine competition FACS, HEK293T human CX3CR1
Source text: as §1, §2

[9] = biological target: T1, human CX3CR1; experiment: fractalkine competition FACS; remark: listed apart in the source
[10] = biological target: T1, human CX3CR1; experiment: fractalkine competition FACS; remark: listed apart in the source
[11] = biological target: T1, human CX3CR1; experiment: A647-fractalkine competition FACS, CHO-huCX3CR1
Source text: as §1, §3

[12] = biological target: T1, human CX3CR1; experiment: A647-fractalkine competition FACS, BA/F3-huCX3CR1
Source text: as §1, §3

[13] = biological target: T1, human CX3CR1; experiment: periplasmic extract, A647-fractalkine competition FACS, CHO-huCX3CR1
Source text: as §1

[14] = biological target: T1, human CX3CR1; experiment: FACS binding on human CX3CR1 cells, anti-c-myc detection
Description: Initially, a FACS based binding setup was used to evaluate the cynomolgus cross reactivity. For this, the VHHs were incubated with the respective cells for 30 minutes at 4° C. followed by three wash steps and subsequently incubated with the detection reagents. As detection, a mouse anti-cmyc antibody (Serotec, MCA2200) followed by a goat anti-mouse antibody coupled to PE (Jackson 115-116-071) was used, each incubation for 30 minutes at 4° C., followed by three wash steps.

[15] = biological target: T1, human CX3CR1; experiment: A647-fractalkine competition FACS, HEK293T human CX3CR1; remark: listed apart in the source
Description: as §2, with “4. The ratio of the IC50 values on cynomolgus monkey and human CX3CR1 was used to evaluate potential differences in affinity for CX3CR1 in both species.” for “4.”
(§4) Also for the bivalent constructs the cross reactivity towards cynomolgus CX3CR1 was evaluated and compared with the human reactivity. As described earlier, either a binding setup (Table 27) or a ligand competition setup (Table 28) were applied using transient transfected HEK293T cells. Batches of transient transfected cells were matched by their receptor expression level.

[16] = biological target: T2, cynomolgus CX3CR1; experiment: A647-fractalkine competition FACS, cynomolgus against human CX3CR1
Description: as §2, with “4. The ratio of the IC50 values on cynomolgus monkey and human CX3CR1 was used to evaluate potential differences in affinity for CX3CR1 in both species.” for “4.”
as §4

[17] = biological target: T1, human CX3CR1; experiment: cell-based or functional assay; remark: listed apart in the source
[18] = biological target: T2, cynomolgus CX3CR1; experiment: A647-fractalkine competition FACS, HEK293T cynomolgus CX3CR1
Description: as §2, with “4. The ratio of the IC50 values on cynomolgus monkey and human CX3CR1 was used to evaluate potential differences in affinity for CX3CR1 in both species.” for “4.”
as §4

[19] = biological target: T1, human CX3CR1; experiment: A647-fractalkine competition FACS, HEK293-huCX3CR1; remark: listed apart in the source

- % block [1]: 98%
- IC50 [1]: 2.5 nM
- % block [2]: 97%
- IC50 [2]: 19 nM
- % block [3]: 100%
- IC50 [3]: 1.5 nM
- % block, fractalkine induced chemotaxis [4]: 87%
- IC50, fractalkine induced chemotaxis [4]: 20 nM
- % block [5]: 102%
- IC50 [5]: 2.5 nM
- % block, ligand induced chemotaxis [6]: 91%
- IC50, ligand induced chemotaxis [6]: 36 nM
- ratio (cynomolgus/human IC50) [7]: 7.5
- % block [8]: 102%
- IC50 [8]: 2.5 nM
- % block [9]: 101%
- IC50 [9]: 2.6 nM
- % block [10]: 98%
- IC50 [10]: 2.5 nM
B1: CX3CR1BIIPMP66B02 (VHH)
VHH: EVQLVESGGGSVQAGESLRLSCAASGSIFSSNAMAWYRQAPGKRRDLVAAINSVGVTKYADSVKGRFTISRDNAKNTVYLQMNSLKPEDTAVYYCTSDPRRGWDTRYWGQGTQVTVSS
modifications: alexa647 label where used as labeled competitor (Table 23)
notes: also called CX3CR1BII66B02; C100CX3CR1BII66B02; not shown: C-terminal c-myc and His6 tags

- % block [11]: 100%
- IC50 [11]: 17 nM
- % block [12]: 100%
- IC50 [12]: 8.1 nM
- % block [13]: 99%
- % block [3]: 100%
- IC50 [3]: 4.9 nM
- % block, fractalkine induced chemotaxis [4]: 89%
- IC50, fractalkine induced chemotaxis [4]: 200 nM
- EC50 [14]: 0.8 nM
B2: CX3CR1BIIPMP11H11 (VHH)
VHH: EVQLVESGGGLVQAGGSLRLSCVASGRTFSSYAMGWFRQAPGKERAFVAGISGSASRKYYADSVKGRFTVSRDNARNTVYLQMNSLKPEDTAVYYCAASNSYPKVQFDYYGQGTQVTVSS
notes: family 9; also called CX3CR1BII11H11; not shown: C-terminal c-myc and His6 tags

- % block [15]: 99%
- IC50 [15]: 0.31 nM
- ratio (cynomolgus/human IC50) [16]: 5.34
- % block, fractalkine induced chemotaxis [17]: 89%
- IC50, fractalkine induced chemotaxis [17]: 3 nM
- % block [18]: 95%
- IC50 [18]: 1.6 nM
- % block [19]: 99%
- IC50 [19]: 0.31 nM
B3: CX3CR1BII017 (VHH)
chain: EVQLVESGGGSVQAGESLRLSCAASGSIFSSNAMAWYRQAPPGKQRDLVALINSVGITKYADSVKGRFTISSDNAKNTVYLEMNSLKPEDTAVYYCTSDGRRGWDTRYWGQGTQVTVSSGGGGSGGGGSGGGGSGGGGSGGGGSGGGGSGGGGSEVQLVESGGGSVQAGESLRLSCAASGSIFSSNAMAWYRQAPPGKQRDLVALINSVGITKYADSVKGRFTISSDNAKNTVYLEMNSLKPEDTAVYYCTSDGRRGWDTRYWGQGTQVTVSS
notes: expressed in E. coli as described for the monovalent VHHs

- % block [15]: 102%
- IC50 [15]: 0.19 nM
- ratio (cynomolgus/human IC50) [16]: 3.67
- % block, fractalkine induced chemotaxis [17]: 88%
- IC50, fractalkine induced chemotaxis [17]: 2 nM
- % block [18]: 98%
- IC50 [18]: 0.69 nM
- % block [19]: 102%
- IC50 [19]: 0.19 nM
B4: CX3CR1BII016 (VHH)
chain: EVQLVESGGGSVQAGESLRLSCAASGSIFSSNAMAWYRQAPGKQRDLVAVINSVGITKYADSVKGRFTISGDNAKNTVYLQMNSLKPEDTAVYYCTSDARRGWDTRYWGQGTQVTVSSGGGGSGGGGSGGGGSGGGGSGGGGSGGGGSGGGGSEVQLVESGGGSVQAGESLRLSCAASGSIFSSNAMAWYRQAPGKQRDLVAVINSVGITKYADSVKGRFTISGDNAKNTVYLQMNSLKPEDTAVYYCTSDARRGWDTRYWGQGTQVTVSS
notes: as for B3

- % block [15]: 102%
- IC50 [15]: 0.03 nM
- ratio (cynomolgus/human IC50) [16]: 3.33
- % block, fractalkine induced chemotaxis [17]: 98%
- IC50, fractalkine induced chemotaxis [17]: 0.6 nM
- % block [18]: 97%
- IC50 [18]: 0.1 nM
- % block [19]: 102%
- IC50 [19]: 0.3 nM
B5: CX3CR1BII018 (VHH)
chain: B4 chain with Q44R, V50A, I56V, G71R, A99P, Q197R, V203A, I209V, G224R, A252P
modifications: A647 label where used as labeled competitor (Example 14)
notes: expressed in E. coli as described for the monovalent VHHs; also called A647-018; A647 labeled CX3CR1BII018

- % block [15]: 100%
- IC50 [15]: 0.29 nM
- ratio (cynomolgus/human IC50) [16]: 2.86
- % block, fractalkine induced chemotaxis [17]: 85%
- IC50, fractalkine induced chemotaxis [17]: 2 nM
- % block [18]: 96%
- IC50 [18]: 0.82 nM
- % block [19]: 100%
- IC50 [19]: 0.29 nM
B6: CX3CR1BII019 (VHH)
chain: B4 chain with V2M, V50L, G71R, A99G, V155M, V203L, G224R, A252G
notes: as for B3

- % block [15]: 102%
- IC50 [15]: 0.22 nM
- ratio (cynomolgus/human IC50) [16]: 1.47
- % block, fractalkine induced chemotaxis [17]: 85%
- IC50, fractalkine induced chemotaxis [17]: 2 nM
- % block [18]: 97%
- IC50 [18]: 0.32 nM
- % block [19]: 102%
- IC50 [19]: 0.22 nM
B7: CX3CR1BII020 (VHH)
chain: B4 chain with V50G, G71R, V78A, A99P, Q113L, V203G, G224R, V231A, A252P, Q266L
notes: as for B3
